From patent US10040826

Columns and labels:
[1] = biological target: A244 gDΔ11 gp120 (Herpes simplex virus; HIV-1); experiment: SPR, Fab amine-coupled to the sensor surface, gp120 flowed
[2] = biological target: A244 gp120 (no modifications) (HIV-1); experiment: as above
[3] = biological target: A244 gDΔ11 gp120 (Herpes simplex virus; HIV-1); experiment: Kd table; row AE.A244 gp120, column A32 gD+; method not given
[4] = biological target: 92TH023 gp120 (no modifications) (HIV-1); experiment: Kd table; row AE.92TH023 gp120, column A32 gD-; method not given
[5] = biological target: MN gDΔ11 gp120 (Herpes simplex virus; HIV-1); experiment: Kd table; row B.MN gp120, column A32 gD+; method not given
A244 Δ11 gp120 (HIV-1) [6] = experiment: SPR, mAb captured on anti-Fc surface, monomeric gp120 as analyte
[7] = biological target: A244 gDΔ11 gp120 (Herpes simplex virus; HIV-1); experiment: as above
[8] = biological target: A244 gp120 (no modifications) (HIV-1); experiment: as above
A244 Δ11 gp120 (HIV-1) [9] = experiment: SPR blocking on immobilized A244 Δ11 gp120, mAb injected to near saturation, then RV144 vaccinee IgG; against 7B2 control
[10] = biological target: 92TH023 gDΔ11 gp120 (Herpes simplex virus; HIV-1); experiment: Kd table; row AE.92TH023 gp120, column A32 gD+; method not given
[11] = biological target: A244 gp120 (no modifications) (HIV-1); experiment: Kd table; row AE.A244 gp120, column A32 gD-; method not given
[12] = biological target: MN-rgp120 (RV144 vaccine immunogen) (Herpes simplex virus; HIV-1); experiment: SPR; A32 captured on anti-Fc surface, RV144 MN-rgp120 injected at 0.5-5 µg/mL; fitted curves
A244 Δ11 gp120 (HIV-1) [13] = experiment: SPR; A244 gp120 gD- Δ11 293T monomer batch 110608 flowed over immobilised A32; ratio to ConS gp140
[14] = biological target: A244-rgp120 (RV144 vaccine immunogen) (Herpes simplex virus; HIV-1); experiment: SPR; A32 captured on anti-Fc surface, RV144 A244-rgp120 injected at 0.5-5 µg/mL; fitted curves [lower row]
A244 Δ11 gp120 (HIV-1) [15] = experiment: SPR
[16] = biological target: A244 gDΔ11 gp120 (Herpes simplex virus; HIV-1); experiment: SPR
[17] = biological target: MN gp120 (no modifications) (HIV-1); experiment: Kd table; row B.MN gp120, column A32 gD-; method not given
[18] = biological target: 92TH023 gDΔ11 gp120 (Herpes simplex virus; HIV-1); experiment: SPR, not detailed
[19] = biological target: MN gDΔ11 gp120 (Herpes simplex virus; HIV-1); experiment: SPR, not detailed
A244 Δ11 gp120 (HIV-1) [20] = experiment: SPR; A244 gp120 gD- Δ11 293T monomer batch 110608 flowed over immobilised A32; response axis in RU
[21] = biological target: A244 gDΔ11 gp120 (Herpes simplex virus; HIV-1); experiment: Kd table; row AE.A244 gp120, column 697D gD+; method not given
[22] = biological target: A244-rgp120 (RV144 vaccine immunogen) (Herpes simplex virus; HIV-1); experiment: SPR; 697D captured on anti-Fc surface, RV144 A244-rgp120 injected at 5.0-100 µg/mL; fitted curves [lower row]
[23] = biological target: 92TH023 gp120 (no modifications) (HIV-1); experiment: Kd table; row AE.92TH023 gp120, column 697D gD-; method not given
A244 Δ11 gp120 (HIV-1) [24] = experiment: SPR titration, binding to 697D mAb; A244 gDneg D11 at [2], [4], [6], [10], [25], [50], unit inferred
[25] = biological target: A244 gp120 (no modifications) (HIV-1); experiment: SPR titration, binding to 697D mAb (697-30D); A244gDneg293Tmon at [5] to [40], unit inferred
[26] = biological target: A244 gp120 (no modifications) (HIV-1); experiment: SPR titration, binding to 697D mAb (697-30D); A244gDneg293Tmon at [5], [10], [20], [40], unit inferred; constant labelled ka1
[27] = biological target: 92TH023 gDΔ11 gp120 (Herpes simplex virus; HIV-1); experiment: Kd table; row AE.92TH023 gp120, column 697D gD+; method not given
[28] = biological target: MN-rgp120 (RV144 vaccine immunogen) (Herpes simplex virus; HIV-1); experiment: SPR; 697D captured on anti-Fc surface, RV144 MN-rgp120 injected at 5.0-100 µg/mL; fitted curves
[29] = biological target: MN gDΔ11 gp120 (Herpes simplex virus; HIV-1); experiment: Kd table; row B.MN gp120, column 697D gD+; method not given
[30] = biological target: A244 gp120 (no modifications) (HIV-1); experiment: Kd table; row AE.A244 gp120, column 697D gD-; method not given
A244 Δ11 gp120 (HIV-1) [31] = experiment: SPR titration, binding to 697D mAb; A244 gDneg D11 at [2] to [50], unit inferred
[32] = biological target: MN-rgp120 (RV144 vaccine immunogen) (Herpes simplex virus; HIV-1); experiment: SPR, mAb captured on anti-Fc surface, gp120 as analyte (FIG. 28)
[33] = biological target: A244-rgp120 (RV144 vaccine immunogen) (Herpes simplex virus; HIV-1); experiment: as above
[34] = biological target: A244 gp120 (no modifications) (HIV-1); experiment: SPR titration, binding to 697D mAb (697-30D); A244gDneg293Tmon at [5] to [40], unit inferred; constant labelled kd1
[35] = biological target: A244 gDΔ11 gp120 (Herpes simplex virus; HIV-1); experiment: SPR titration, binding to 697D mAb (697-30D); A244 gD+ monomer at [10] to [40], unit inferred
[36] = biological target: A244 gDΔ11 gp120 (Herpes simplex virus; HIV-1); experiment: SPR titration, binding to 697D mAb (697-30D); A244 gD+ monomer at [10], [20], [30], [40], unit inferred
[37] = biological target: MN gp120 (no modifications) (HIV-1); experiment: Kd table; row B.MN gp120, column 697D gD-; method not given
[38] = biological target: A244 gp120 (no modifications) (HIV-1); experiment: SPR

697D Fab
Kd [1]: 690 nM | fold higher affinity than to unmodified A244 gp120 [1]: 8 fold | fold higher ka than to A244 gp120 [1]: 10 fold | Kd [2]: 5700 nM

C1 mAb A32 (antibody)
Kd [3]: 0.13 nM | Kd [4]: 4.6 nM | Kd [5]: 4.15 nM | Kd (A244 Δ11 gp120 (HIV-1) [6]): 0.67 nM | koff (A244 Δ11 gp120 (HIV-1) [6]): 0.00015 s⁻¹ | kon (A244 Δ11 gp120 (HIV-1) [6]): 223000 M⁻¹ s⁻¹ | Kd [7]: 1 nM | koff [7]: 0.000133 s⁻¹ | kon [7]: 134000 M⁻¹ s⁻¹ | Kd [8]: 6.25 nM | koff [8]: 0.00047 s⁻¹ | kon [8]: 76800 M⁻¹ s⁻¹ | percent blocking of RV144 vaccinee IgG binding (A244 Δ11 gp120 (HIV-1) [9]): 66% | Kd [10]: 1.35 nM | Kd [11]: 2.6 nM | Kd [12]: 0.21 nM | Relative Binding Env/ConS gp140 (A244 Δ11 gp120 (HIV-1) [13]): 5.16 | Kd [14]: 1.13 nM | fold higher affinity than to A244 gp120 (A244 Δ11 gp120 (HIV-1) [15]): 9 fold | fold higher affinity than to A244 gp120 [16]: 6 fold | Kd [17]: 0.8 nM | fold enhancement of binding against the unmodified protein [18]: 2 to 3 fold | fold enhancement of binding against the unmodified protein [19]: 2 to 3 fold | Req (A244 Δ11 gp120 (HIV-1) [20]): 2290

V2 mAb 697D (antibody)
Kd [21]: 180 nM | Kd [22]: 477 nM | Kd [23]: 1310 nM | Kd (A244 Δ11 gp120 (HIV-1) [6]): 157 nM | koff (A244 Δ11 gp120 (HIV-1) [6]): 0.00518 s⁻¹ | kon (A244 Δ11 gp120 (HIV-1) [6]): 26800 M⁻¹ s⁻¹ | Kd [7]: 218 nM | koff [7]: 0.00524 s⁻¹ | kon [7]: 24900 M⁻¹ s⁻¹ | Kd [8]: 1470 nM | koff [8]: 0.007 s⁻¹ | kon [8]: 4900 M⁻¹ s⁻¹ | kon (A244 Δ11 gp120 (HIV-1) [24]): 24700 M⁻¹ s⁻¹ | Kd [25]: 1900 nM | kon [26]: 3400 M⁻¹ s⁻¹ | Kd [27]: 734 nM | Kd [28]: 318 nM | Kd [29]: 488 nM | Kd [30]: 1000 nM | fold higher affinity than to A244 gp120 (A244 Δ11 gp120 (HIV-1) [15]): 10 fold | fold tighter binding than to A244 gp120 with no modifications (A244 Δ11 gp120 (HIV-1) [15]): 10 fold | fold higher affinity than to A244 gp120 [16]: 10 fold | Kd (A244 Δ11 gp120 (HIV-1) [31]): 98.7 nM | koff (A244 Δ11 gp120 (HIV-1) [31]): 0.0033 s⁻¹ | Kd [32]: 477 nM | Kd [33]: 318 nM | koff [34]: 0.0063 s⁻¹ | fold enhancement of binding against the unmodified protein [18]: 2 to 3 fold | fold enhancement of binding against the unmodified protein [19]: 2 to 3 fold | Kd [35]: 162 nM | koff [35]: 0.0066 s⁻¹ | kon [36]: 40000 M⁻¹ s⁻¹ | Kd [37]: 1070 nM

V2 mAb 2158 (antibody)
Kd (A244 Δ11 gp120 (HIV-1) [6]): 3.68 nM | koff (A244 Δ11 gp120 (HIV-1) [6]): 0.00013 s⁻¹ | kon (A244 Δ11 gp120 (HIV-1) [6]): 36500 M⁻¹ s⁻¹ | Kd [7]: 3.7 nM | koff [7]: 0.0001 s⁻¹ | kon [7]: 28700 M⁻¹ s⁻¹ | Kd [8]: 11.2 nM | koff [8]: 0.00019 s⁻¹ | kon [8]: 16400 M⁻¹ s⁻¹ | fold lower affinity than for A244gDΔ11 and A244Δ11 gp120 [38]: 3 fold
